Experiment: soluble fraction after stress (log2 fold change); higher = more stays soluble; pooled small domains, quantitative proteomics
Settings: stress: 50 degC
In short: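 Pooled custom libraries of small protein domains were each held under stress at 50°C. The read-out, high-throughput quantitative proteomics, tracked how much of each protein stayed soluble. This is reported as a base-two log fold change used to indicate aggregation propensity. Higher values mean more protein remains in solution.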

| Sequence | soluble fraction (log2) |
| --- | --- |
| HMENFDNIFDQRLMPSLFIIRNINQAIENNNNNKFLLNSTISMKDKHWIEIHPHHLKLIISGYQT | -0.238 |
| HMKIEEVIEKLKTDSIISRKEYEDIVRQINPNLSDRTIFWQLAKLQDMGVLQKIGQNSFHVRN | -0.26 |
| HMLNEWIDYIDEHIKEELTAKNLATVFGYSERHFRNVFQIYYDIKLNDYIRRRKLYFAAQELKKG | -1.17 |
| HMGPGSYVVNVKPYAYVSINGRDYGRTPVGPIRLDPGTYKVVFTHEHRPSFSRTIVVEAGRETFETFPYPG | -0.29 |
| HMNDEFYAVVRESYAGYALVKPLDEDVGYDILSVSVKNLKVGDIIRLKVKNIKEIYPPEAEVLEVEVLQ | 0.00135 |
| HMDDPLSQLTPREREVLELMASGASNQGIADALVITVRAVEKYVSSIFGKLGLPSTGSESRRVLAVLTFLR | -0.635 |
| HMDKIEVVEVDMSKPYEDMTVTELQNVILDKLASNGPVTNQMKKDVSENIYHDSLVNWAKSF | 0.0697 |
| HMEKRRQEIVELVKRESEISFAELKQHFPEVSEVTLRKDLKYLDSTLQIIRIHGGAKSLPAAI | -0.362 |
| HMGLDPVFKKWVDDNPWYTENRVLRALTHDYAEELKQTNPQLVGVEFLDQVKKRVQADHPEFFQ | 0.141 |
| HMEKVTAPMPGVINSIVKNVGDTVKRGDVVLILEAMKMENEIVAPKEGKIASINVAKGASVNAGDVLFSI | 0.294 |
| HMNITFAENIKQFRKAKSMSMEELGKRLGKAKSSISAWENGKRTPKINELKSISEALGVTISQLLGF | -1.13 |
| HMVKSSVTEVISMINALPVTVKPEDKADIISARMAYDTLTEDEKALVTNYEILTAAETRFNELIATT | 0.205 |
| HMKRQDFEFLVNLLRQNAGWDFDEEQYFVVDKKISNFIREKGYASVEDLIDELKVGAKPLISQVVESLAL | -0.622 |
| HMRAGEAVTGQVIGVKEDEIILSIAGSKSEGIITRSEFTNEPNVDLTTKVSVGDELEVKVLKVNDGEGMAS | -0.171 |
| HMGNNTEITYSEFIRQAEAGNVQYVTVDGEKLLISATDGKSYYTINPRDDQMTDRLLNSGVEIRAEPQ | 0.101 |
| HMLAEEDRRRAERPGLDGNAVMVHLGIGPGRHVGEALAFLLEVRRSEGDLAVAELKSRIDAWWADR | -2.59 |
| HMGNWENVEKETTEAIMAVKNGEAVWVDLAPANRMIRQMQHELVEQYGLLSQSYGKEPKRRIRIFQNP | -0.337 |
| HMIHEQSLHKIRNFIGSLPESLRTAFTLREQDGLSYEEIGKITNTPIGTVRSRIYRARESILDHINQE | -0.874 |
| HMNTKQRTAVMRILKQSSDPVSADDVFAALKDEYPSLALSTVYRNLERFADESMVKKDVWSDGIVRYSLAD | -0.189 |

| Sequence | soluble fraction (log2) |
| --- | --- |
| HMADVPSTIFEAYRILGLNPEAPPVAVKKVVDALRMSWHPDHARSEPDRRHREERIKQINAAWDLLKGV | 0.148 |
| HMFDEDKLIISIGSKVRIIREPYFGTIGKVVELPPELVKMDTEAMLRVAIIKLDDGEKVTIPRANLEVILS | -1.22 |
| HMSSVMMPDLTGESAIVAMERLQQLGLLPKVEEVDSYREPGIVLEQLPRAGEKIKRGRIAILKVSS | -0.26 |
| HMLWTHIALPVRSLDDTMAFYDKYTTLENIHERQDPETNMRSVWLANPGDKTEQAARFVLVLI | -0.116 |
| HMGKSDEIFIQKSALYEELGQPDRALEMIYSALKSDSLNIDVLHRLVTLLINQNKNEDAILYNQKIID | -0.193 |
| HMDETFTITFDPNGGTLNGSKTKTVSLGDIVYGKLPTASKTGYSFIGWFTEKEGGEQISSATKIIASDLTL | 0.0253 |
| HMNSVLPQEVKSSLNDFFTKYAPGSIAQKLINHASFTGGKVVVTGVELTQTQADDLKKAFKDKFF | 0.000827 |
| HMSTTILSFQNRVVIETLHNEGRSLRYIANYLGFSKATIFNELHRLNSEYRAELAQADFERKVSQR | -3.59 |
| HMGGPEVLELEDVKVGSPGPDEIKVTNHAIGLNYIDTYHRSGLYPLKLPSGIGLEAAGKVEEIGSNV | 0.0604 |
| HMAGSGDLNAKYLASIPAPMKAKILKAVANHYGVSISEFEEEVTDKDAEALYEYIPTRSMAVQVLRDMKG | -0.373 |
| HMGVEALTPRQREVLALMAQGRSNGWIAAELGLSEKAIVQHTSNIYDMLGLAVDADDHRRVLAVIHYLT | -1.25 |
| HMSSWEEQLKIWAKNELASGNTDILARATVSFEQILIEAALTHTGGRKKTAAELLGWGRNTLTRKIKELHI | -0.29 |
| HMGIIQAQIPGLVSRLFVKKGDKVAVNQRLFILEAMKMENEIDSPIQGMVEKIHITTGSKVEKGDLIMEIV | -0.323 |
| HMAGQWQQDQNGWKYKTDNGDHMKNTWYQDSDSRWYYFGPDGYMKSSTMTPDGYVVGSDGAWIE | -0.518 |
| HMYEIEDIKEKLLDLLANSKTGFSGLEISNRLGINRITVSKYLNIFSAEGLIKQKNIGNVIIWFVEDGIE | -0.203 |
| HMINLDYILELIFEKNNKTKDKTALIEEIRGVIRASVGNRAKESLIVDFINDTDLDTITDKASIIESFFEY | -3.51 |
| HMNELPSVIIMKNGRTRPYELQEISKDEEWLNQTIREHGIEPKDIFIAEFWDGRTAFILNDGRIVK | -0.555 |
| HMQISDEAALLAIVDRVIADNQGPLANYLGGKQSLLGWFVGQVMRATRGQAIPAVVNRLVGERLAAQREE | -0.627 |

Source: the domain aggregation screens of Martell et al. (2025)
